Read-outs that look alike come from different tables or passages of the source.
What was measured:
HLA-B*08:01 [1] = target: T1, HLA-B*08:01 (human (endogenous in the Steinlin EBV …))
HLA-B*08:01 [2] = target: T1, HLA-B*08:01; remark: listed apart in the source
[3] = target: HLA-C*07:01 purified from the Steinlin EBV transformed homozygous cell line (human (endogenous in the Steinlin EBV …))

Row | Binder | IC50 (HLA-B*08:01 [1]) | IC50 (HLA-B*08:01 [2]) | IC50 [3]
1 | IRSSYIRVL [peptide 3424.0028 (IRSSYIRVL, DNA replication licensing factor MCM5 289-297)] | 0.301 µM |  | 
2 | SRGTSPARM [SARS-CoV-2 nucleocapsid peptide SRGTSPARM (R203/G204)] |  | > 50 µM | > 50 µM
